Consider two molecules from paper PMC6895265.

In the data set the target is TCF4 bHLH domain (Homo sapiens, UniProt P15884 565-624). Kind of data set: ITC. (In general: ITC needs no label: the signal is the heat of the interaction.)
Sequence of TCF4 bHLH domain (P15884 565-624): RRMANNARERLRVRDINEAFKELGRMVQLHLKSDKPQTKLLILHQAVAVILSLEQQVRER

B1: 12-mer TA-flanked, X=M (dsDNA)
DNA 1: ATACACGTGTAT
DNA 2: ATACACGTGTAT
modifications: 5mC at C4 and C6 of both strands
With B1, the binding result is on record as “no binding”.

B2: 12-mer TA-flanked, X=H (dsDNA)
DNA 1: ATACACGTGTAT
DNA 2: ATACACGTGTAT
modifications: 5hmC at C4 and C6 of both strands
For the molecule B2, the binding result is “no binding”.
